Drawing on article PMC5430726, this text covers Kd, dH and stoichiometry N for 1 substance.

Assay [1] deals with Grb2 SH3C-SLP65 peptide binary complex (formed before Vav SH3N was added) (mouse) (UniProt Q60631). The assay is described as follows: ITC; Vav SH3N titrated into the preformed Grb2 SH3C-SLP65 peptide binary complex (gives Complex 2, trimeric); 20 mM sodium phosphate, 100 mM NaCl, pH 6.0, 25 °C; Kd called approximate. (In ITC the heat of successive injections is recorded.)
Assay [2] concerns the target Grb2 C-terminal SH3 domain (SH3C), residues 155-217 (mouse) (UniProt Q60631). The assay is described as follows: ITC; free Grb2 SH3C in the cell (20 uM for the peptide, 40 uM for Vav) titrated with 280 uM SLP65 peptide or 600 uM Vav SH3N; 20 mM sodium phosphate, 100 mM NaCl, pH 6.0, 25 °C; one-site binding model.

Grb2 SH3C-SLP65 peptide binary complex (formed before Vav SH3N was added) (mouse), sequence (Q60631 155-217, one chain of several): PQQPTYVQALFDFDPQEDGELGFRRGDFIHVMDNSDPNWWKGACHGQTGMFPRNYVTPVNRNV
Grb2 C-terminal SH3 domain (SH3C), residues 155-217 (mouse), sequence (Q60631 155-217): as the sequence (Q60631 155-217, one chain of several) above

As for “Vav N-terminal SH3 domain (SH3N), residues 583-660 (from UniProt Q8VDU4 583-660) (domain or fragment)”, in assay [1], the Kd turned out to be 11.5 µM, the dH was -0.54 kcal/mol and the stoichiometry N stood at 1.1. In assay [2], this substance came in with a Kd of 4.5 µM, a dH of -3.15 kcal/mol and a stoichiometry N of 0.91.

The term Kd denotes a measure of binding affinity in units of concentration. A low value points to higher affinity. Broadly, the stoichiometry N is the number of molecules, sites or subunits per partner or assembly.
